Assay results published in US20210300974, “ARTIFICIAL TRANSCRIPTION FACTORS COMPRISING A SLIDING DOMAIN AND USES THEREOF” (THE BROAD INSTITUTE, INC., published 2021).
Primed or numbered codes have the meaning given here. Ends that are not written are not given here. TMR(3) = tetramethylrhodamine (TMR) label conjugated to the Cys side chain

Columns and labels:
[1] = test system: T1, TMR-(CH2)5-KRRR-NH2 (synthetic); assay: FP; details: 2 mM NaCl, pH 7.4
T1 sequence: KRRR

[2] = test system: T2, TMR-(RL)4-NH2 (synthetic); assay: FP; details: 2 mM NaCl, pH 7.4
T2 sequence: RRRR

[3] = test system: TMR-(RS)4-NH2 (synthetic); assay: FP; details: 2 mM NaCl, pH 7.4
TMR-KKKK-NH2 (synthetic) = test system: T3, TMR-KKKK-NH2 (synthetic); assay: FP; details: 2 mM NaCl, pH 7.4
T3 sequence: KKKK

[4] = test system: T4, TMR-KRRR (C-terminal carboxylate) (synthetic); assay: FP; details: CITED (Xiong et al); pH 7.4; cited from earlier work
T4 sequence: KRRR

TMR-KRRR-NH2 (synthetic) = test system: T5, TMR-KRRR-NH2 (synthetic); assay: FP; details: 2 mM NaCl, pH 7.4
T5 sequence: KRRR

TMR-RRRK-NH2 (synthetic) = test system: T6, TMR-RRRK-NH2 (synthetic); assay: FP; details: 2 mM NaCl, pH 7.4
T6 sequence: RRRK

[5] = test system: T7, TMR-RRRR (C-terminal carboxylate) (synthetic); assay: FP; details: CITED (Xiong et al); pH 7.4; cited from earlier work
T7 sequence: RRRR

TMR-RRRR-NH2 (synthetic) = test system: T8, TMR-RRRR-NH2 (synthetic); assay: FP; details: 2 mM NaCl, pH 7.4
T8 sequence: RRRR

[6] = test system: T9, TMR-beta3(KRRR)-NH2 (synthetic); assay: FP; details: 2 mM NaCl, pH 7.4
T9 sequence: KRRR

[7] = test system: T10, TMR-beta3(RRRK)-NH2 (synthetic); assay: FP; details: 2 mM NaCl, pH 7.4
T10 sequence: RRRK

KRRRC(-TMR)-NH2 = molecular target: T11, KRRRC(-TMR)-NH2 (synthetic); assay: FP; 2 mM NaCl, pH 7.4; text p253 states 46 ± 9; details: tags: TMR on Cys; free N-terminal amine; C-terminal amide
T11 chain: KRRRC(TMR(3))-NH2

Question: What does the source list for “GACGACTAGGACGACGACGAGGATGACGAC (double strand) [30-mer dsDNA]”?
Answer: Kd [1]: 46 nM; Kd [2]: 13 nM; Kd [3]: 129 nM; Kd (TMR-KKKK-NH2 (synthetic)): 53 nM; Kd [4]: 197 nM; Kd (TMR-KRRR-NH2 (synthetic)): 46 nM; Kd (TMR-RRRK-NH2 (synthetic)): 28 nM; Kd [5]: 236 nM; Kd (TMR-RRRR-NH2 (synthetic)): 31 nM; Kd [6]: 41 nM; Kd [7]: 49 nM

B1: 30-mer dsDNA (dsDNA)
DNA 1: GACGACTAGGACGACGACGAGGATGACGAC
DNA 2: GTCGTCATCCTCGTCGTCGTCCTAGTCGTC
Question: With B1 as the molecule, how does the Kd (KRRRC(-TMR)-NH2) read?
Answer: 54 nM
